According to FireProtDB (doi:10.1006/jmbi.1998.1906):

B1: Lysozyme C, P61626 (parent)
chain: MKALIVLGLVLLSVTVQGKVFERCELARTLKRLGMDGYRGISLANWMCLAKWESGYNTRATNYNAGDRSTDYGIFQINSRYWCNDGKTPGAVNACHLSCSALLQDNIADAVACAKRVVRDPQGIRAWVAWRNRCQNRDVRQYVQGCGV

Variants of: B1
Details: Homo sapiens; pH 2.5; Thermal; DSC; glycine 0.05 M; reversible: yes; structure 1LZ1; whole UniProt chain shown

Variant	Tm [°C]	unfolding enthalpy (calorimetric) [kcal/mol]	unfolding enthalpy (van 't Hoff) [kcal/mol]
MKALIVLGLVLLSVTVQGKVFERCELARTLKRLGMDGYRGISLANWMCLAKWESGYNTRATNYNAGDRSTDYGIFQINSRYWCNDGKTPGAVNACHLSCSALLQDNIADAVACAKRVVRDPQGIRAWVAWRNRCQNRDVRQYVQGCGA [V148A]	40.4	61	67.7

Same assay, conditions: Homo sapiens; pH 2.69; Thermal; DSC; glycine 0.05 M; reversible: yes; structure 1LZ1; whole UniProt chain shown

Variant	Tm [°C]	unfolding enthalpy (calorimetric) [kcal/mol]	unfolding enthalpy (van 't Hoff) [kcal/mol]
MKALIVLGLVLLSVTVQGKVFERCELARTLKRLGMDGYRGISLANWMCLAKWESGYNTRATNYNAGDRSTDYGIFQINSRYWCNDGKTPGAVNACHLSCSALLQDNIADAVACAKRVVRDPQGIRAWVAWRNRCQNRDVRQYVQGCGA [V148A]	43.8	69.9	73

Same assay, conditions: Homo sapiens; pH 2.7; 49.2 °C; Thermal; DSC; glycine 0.05 M; reversible: yes; structure 1LZ1; whole UniProt chain shown

Variant	ddG of mutation (higher = less stable) [kcal/mol]	heat capacity change of unfolding [kcal/mol/K]
MKALIVLGLVLLSVTVQGKVFERCELARTLKRLGMDGYRGISLANWMCLAKWESGYNTRATNYNAGDRSTDYGIFQINSRYWCNDGKTPGAVNACHLSCSALLQDNIADAVACAKRVVRDPQGIRAWVAWRNRCQNRDVRQYVQGCGA [V148A]	1.12	1.87
MKALIVLGLVLLSVTVQGKVFERCELARTLKRLGMDGYRGISLANWMCLAKWESGYNTRATNYNAGDRSTDYGIFQINSRYWCNDGKTPGAVNACHLSCSALLQDNIADAVACAKRVARDPQGIRAWVAWRNRCQNRDVRQYVQGCGV [V118A]	0.57	1.84

Same assay, conditions: Homo sapiens; pH 2.7; Thermal; DSC; glycine 0.05 M; reversible: yes; structure 1LZ1; whole UniProt chain shown

Variant	Tm [°C]	change of melting temperature, mutant - wild type (higher = more stable) [°C]	heat capacity change of unfolding [kcal/mol/K]	unfolding enthalpy (calorimetric) [kcal/mol]
MKALIVLGLVLLSVTVQGKVFERCELARTLKRLGMDGYRGISLANWMCLAKWESGYNTRATNYNAGDRSTDYGIFQINSRYWCNDGKTPGAVNACHLSCSALLQDNIADAVACAKRVVRDPQGIRAWVAWRNRCQNRDVRQYVQGCGA [V148A]	44.4	-4.8	1.87	78.2
MKALIVLGLVLLSVTVQGKVFERCELARTLKRLGMDGYRGISLANWMCLAKWESGYNTRATNYNAGDRSTDYGIFQINSRYWCNDGKTPGAVNACHLSCSALLQDNIADAVACAKRAVRDPQGIRAWVAWRNRCQNRDVRQYVQGCGV [V117A]	44.8	-4.4	1.27	67
MKALIVLGLVLLSVTVQGKVFERCELARTLKRLGMDGYRGISLANWMCLAKWESGYNTRATNYNAGDRSTDYGIFQINSRYWCNDGKTPGAVNACHLSCSALLQDNIADAVACAKRVARDPQGIRAWVAWRNRCQNRDVRQYVQGCGV [V118A]	46.6	-2.6	1.84	72.2

Same assay, conditions: Homo sapiens; pH 2.82; Thermal; DSC; glycine 0.05 M; reversible: yes; structure 1LZ1; whole UniProt chain shown

Variant	Tm [°C]	unfolding enthalpy (calorimetric) [kcal/mol]	unfolding enthalpy (van 't Hoff) [kcal/mol]
MKALIVLGLVLLSVTVQGKVFERCELARTLKRLGMDGYRGISLANWMCLAKWESGYNTRATNYNAGDRSTDYGIFQINSRYWCNDGKTPGAVNACHLSCSALLQDNIADAVACAKRVVRDPQGIRAWVAWRNRCQNRDVRQYVQGCGA [V148A]	47	73	79.2

Same assay, conditions: Homo sapiens; pH 2.97; Thermal; DSC; glycine 0.05 M; reversible: yes; structure 1LZ1; whole UniProt chain shown

Variant	Tm [°C]	unfolding enthalpy (calorimetric) [kcal/mol]	unfolding enthalpy (van 't Hoff) [kcal/mol]
MKALIVLGLVLLSVTVQGKVFERCELARTLKRLGMDGYRGISLANWMCLAKWESGYNTRATNYNAGDRSTDYGIFQINSRYWCNDGKTPGAVNACHLSCSALLQDNIADAVACAKRVVRDPQGIRAWVAWRNRCQNRDVRQYVQGCGA [V148A]	49.9	80.1	86.1

Same assay, conditions: Homo sapiens; pH 3.09; Thermal; DSC; glycine 0.05 M; reversible: yes; structure 1LZ1; whole UniProt chain shown

Variant	Tm [°C]	unfolding enthalpy (calorimetric) [kcal/mol]	unfolding enthalpy (van 't Hoff) [kcal/mol]
MKALIVLGLVLLSVTVQGKVFERCELARTLKRLGMDGYRGISLANWMCLAKWESGYNTRATNYNAGDRSTDYGIFQINSRYWCNDGKTPGAVNACHLSCSALLQDNIADAVACAKRVVRDPQGIRAWVAWRNRCQNRDVRQYVQGCGA [V148A]	52.5	84.2	90.2

Same assay, conditions: Homo sapiens; pH 2.54; Thermal; DSC; glycine 0.05 M; reversible: yes; structure 1LZ1; whole UniProt chain shown

Variant	Tm [°C]	unfolding enthalpy (calorimetric) [kcal/mol]	unfolding enthalpy (van 't Hoff) [kcal/mol]
MKALIVLGLVLLSVTVQGKVFERCELARTLKRLGMDGYRGISLANWMCLAKWESGYNTRATNYNAGDRSTDYGIFQINSRYWCNDGKTPGAVNACHLSCSALLQDNIADAVACAKRAVRDPQGIRAWVAWRNRCQNRDVRQYVQGCGV [V117A]	41.4	56	59.6

Same assay, conditions: Homo sapiens; pH 2.72; Thermal; DSC; glycine 0.05 M; reversible: yes; structure 1LZ1; whole UniProt chain shown

Variant	Tm [°C]	unfolding enthalpy (calorimetric) [kcal/mol]	unfolding enthalpy (van 't Hoff) [kcal/mol]
MKALIVLGLVLLSVTVQGKVFERCELARTLKRLGMDGYRGISLANWMCLAKWESGYNTRATNYNAGDRSTDYGIFQINSRYWCNDGKTPGAVNACHLSCSALLQDNIADAVACAKRAVRDPQGIRAWVAWRNRCQNRDVRQYVQGCGV [V117A]	45.3	62.2	65.8
MKALIVLGLVLLSVTVQGKVFERCELARTLKRLGMDGYRGISLANWMCLAKWESGYNTRATNYNAGDRSTDYGIFQINSRYWCNDGKTPGAVNACHLSCSALLQDNIADAVACAKRVARDPQGIRAWVAWRNRCQNRDVRQYVQGCGV [V118A]	46.8	68.9	73.4

Same assay, conditions: Homo sapiens; pH 2.85; Thermal; DSC; glycine 0.05 M; reversible: yes; structure 1LZ1; whole UniProt chain shown

Variant	Tm [°C]	unfolding enthalpy (calorimetric) [kcal/mol]	unfolding enthalpy (van 't Hoff) [kcal/mol]
MKALIVLGLVLLSVTVQGKVFERCELARTLKRLGMDGYRGISLANWMCLAKWESGYNTRATNYNAGDRSTDYGIFQINSRYWCNDGKTPGAVNACHLSCSALLQDNIADAVACAKRAVRDPQGIRAWVAWRNRCQNRDVRQYVQGCGV [V117A]	48.2	67.2	70.6

Same assay, conditions: Homo sapiens; pH 3.02; Thermal; DSC; glycine 0.05 M; reversible: yes; structure 1LZ1; whole UniProt chain shown

Variant	Tm [°C]	unfolding enthalpy (calorimetric) [kcal/mol]	unfolding enthalpy (van 't Hoff) [kcal/mol]
MKALIVLGLVLLSVTVQGKVFERCELARTLKRLGMDGYRGISLANWMCLAKWESGYNTRATNYNAGDRSTDYGIFQINSRYWCNDGKTPGAVNACHLSCSALLQDNIADAVACAKRAVRDPQGIRAWVAWRNRCQNRDVRQYVQGCGV [V117A]	51	68.9	72.2
MKALIVLGLVLLSVTVQGKVFERCELARTLKRLGMDGYRGISLANWMCLAKWESGYNTRATNYNAGDRSTDYGIFQINSRYWCNDGKTPGAVNACHLSCSALLQDNIADAVACAKRVARDPQGIRAWVAWRNRCQNRDVRQYVQGCGV [V118A]	52	77.8	81.6

Same assay, conditions: Homo sapiens; pH 3.1; Thermal; DSC; glycine 0.05 M; reversible: yes; structure 1LZ1; whole UniProt chain shown

Variant	Tm [°C]	unfolding enthalpy (calorimetric) [kcal/mol]	unfolding enthalpy (van 't Hoff) [kcal/mol]
MKALIVLGLVLLSVTVQGKVFERCELARTLKRLGMDGYRGISLANWMCLAKWESGYNTRATNYNAGDRSTDYGIFQINSRYWCNDGKTPGAVNACHLSCSALLQDNIADAVACAKRAVRDPQGIRAWVAWRNRCQNRDVRQYVQGCGV [V117A]	52.6	70.6	73.7

Same assay, conditions: Homo sapiens; pH 2.51; Thermal; DSC; glycine 0.05 M; reversible: yes; structure 1LZ1; whole UniProt chain shown

Variant	Tm [°C]	unfolding enthalpy (calorimetric) [kcal/mol]	unfolding enthalpy (van 't Hoff) [kcal/mol]
MKALIVLGLVLLSVTVQGKVFERCELARTLKRLGMDGYRGISLANWMCLAKWESGYNTRATNYNAGDRSTDYGIFQINSRYWCNDGKTPGAVNACHLSCSALLQDNIADAVACAKRVARDPQGIRAWVAWRNRCQNRDVRQYVQGCGV [V118A]	43.5	61.5	70.1

Same assay, conditions: Homo sapiens; pH 2.9; Thermal; DSC; glycine 0.05 M; reversible: yes; structure 1LZ1; whole UniProt chain shown

Variant	Tm [°C]	unfolding enthalpy (calorimetric) [kcal/mol]	unfolding enthalpy (van 't Hoff) [kcal/mol]
MKALIVLGLVLLSVTVQGKVFERCELARTLKRLGMDGYRGISLANWMCLAKWESGYNTRATNYNAGDRSTDYGIFQINSRYWCNDGKTPGAVNACHLSCSALLQDNIADAVACAKRVARDPQGIRAWVAWRNRCQNRDVRQYVQGCGV [V118A]	49.9	72.5	79.2

Same assay, conditions: Homo sapiens; pH 3.15; Thermal; DSC; glycine 0.05 M; reversible: yes; structure 1LZ1; whole UniProt chain shown

Variant	Tm [°C]	unfolding enthalpy (calorimetric) [kcal/mol]	unfolding enthalpy (van 't Hoff) [kcal/mol]
MKALIVLGLVLLSVTVQGKVFERCELARTLKRLGMDGYRGISLANWMCLAKWESGYNTRATNYNAGDRSTDYGIFQINSRYWCNDGKTPGAVNACHLSCSALLQDNIADAVACAKRVARDPQGIRAWVAWRNRCQNRDVRQYVQGCGV [V118A]	54.4	81.8	84.7
